{
  "source": "patent US20240417475A1",
  "about": "(AFFIMED, published 2024)",
  "key": {"[1]": {"biological_target": "T1, human FOLR1 expressed on CHO cells (cAg_125) (human, UniProt P15328 25-234)", "T1 construct": "whole, on cells; also called huFOLR1", "T1 sequence (P15328 25-234)": "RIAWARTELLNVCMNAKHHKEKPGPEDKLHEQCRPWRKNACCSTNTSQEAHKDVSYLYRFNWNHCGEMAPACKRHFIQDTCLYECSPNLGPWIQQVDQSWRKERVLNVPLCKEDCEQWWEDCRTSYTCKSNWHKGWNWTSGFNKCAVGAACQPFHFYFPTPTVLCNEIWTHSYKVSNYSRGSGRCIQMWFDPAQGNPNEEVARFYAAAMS", "experiment": "flow cytometry on huFOLR1 CHO cells (cAg_125), one-site fit of MFI, mean", "method": "(§1) To analyze binding of different antibody constructs to CHO cells transfected with human FOLR1 (cAg_125) and cynomolgus FOLR1 (cAg_126), 1-5×10⁵ were resuspended in 100 μL FACS buffer (PBS (BioWest, cat.: L0615-500) containing 2% heat-inactivated FCS (Invitrogen, cat.: 10500-064), and 0.1% sodium azide (Sigma, cat.: S8032_100G)) in round-bottom 96-well microtiter plates. After washing in FACS buffer, cells were incubated in 50 μL FACS buffer without antibodies or with titrated antibodies starting at a concentration of 1000 nM followed by eleven 3-fold serial dilutions for 40-50 min on ice in the dark. […] After washing, binding was measured by flow cytometry and mean fluorescence intensities (MFI) of cell samples were calculated and corrected for background staining using control cells stained with secondary antibodies only.\n(§2) Binding of antibody constructs to huFOLR1-as well as cyFOLR1-transfected CHO cells was measured by flow cytometry. Equilibrium dissociation constants (KD) of antibody binding were calculated by plotting MFI values and fitting a non-linear regression model for one-site binding to hyperbolic dose-response curves using GraphPad Prism."}, "[2]": {"biological_target": "T1, human FOLR1 expressed on CHO cells …", "experiment": "flow cytometry on huFOLR1 CHO cells (cAg_125), one-site fit of MFI, Exp. 1", "method": "as §1, §2"}, "[3]": {"biological_target": "T2, human CD16A (158F) expressed on CHO cells (cAg_34) (human, UniProt P08637 17-254)", "T2 construct": "also called huCD16A-transfected CHO cells", "T2 sequence (P08637 17-254 limits assumed)": "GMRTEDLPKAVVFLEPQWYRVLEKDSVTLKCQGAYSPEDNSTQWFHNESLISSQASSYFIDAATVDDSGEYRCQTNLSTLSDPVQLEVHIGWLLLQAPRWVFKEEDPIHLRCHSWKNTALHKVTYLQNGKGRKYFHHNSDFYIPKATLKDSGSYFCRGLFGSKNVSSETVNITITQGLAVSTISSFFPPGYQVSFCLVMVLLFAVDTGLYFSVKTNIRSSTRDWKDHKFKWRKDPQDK", "experiment": "flow cytometry on huCD16A (158F) CHO cells (cAg_34), one-site fit of MFI, mean", "method": "(§3) After washing in FACS buffer, cells were incubated in 50 μL FACS buffer without antibodies or with titrated antibodies starting at a concentration of 1000 nM followed by elven 3-fold serial dilutions for 40-50 min on ice in the dark. […] After washing, binding was measured by flow cytometry and mean fluorescence intensities (MFI) of cell samples were calculated and corrected for background staining using control cells stained with secondary antibodies only.\n(§4) Equilibrium dissociation constants (KD) of antibody binding were calculated by plotting MFI values and fitting a non-linear regression model for one-site binding to hyperbolic dose-response curves using GraphPad Prism."}, "[4]": {"biological_target": "T3, human CD16A (158V) expressed on CHO cells (cAg_35) (human, UniProt P08637 17-254)", "T3 construct": "also called huCD16A (158V)", "T3 sequence (P08637 17-254 F176V limits assumed)": "as the sequence (P08637 17-254 limits assumed) above, with F160V counted along it", "experiment": "flow cytometry on huCD16A (158V) CHO cells (cAg_35), one-site fit of MFI, mean", "method": "as §3, §4"}, "[5]": {"biological_target": "T2, human CD16A (158F) expressed on CHO …", "experiment": "flow cytometry on huCD16A (158F) CHO cells (cAg_34), one-site fit of MFI, Exp. 3", "method": "as §3, §4"}, "[6]": {"biological_target": "T3, human CD16A (158V) expressed on CHO …", "experiment": "flow cytometry on huCD16A (158V) CHO cells (cAg_35), one-site fit of MFI, Exp. 3", "method": "as §3, §4"}, "[7]": {"biological_target": "T4, CD16A endogenously expressed on primary human NK cells (human, UniProt P08637 17-254)", "T4 sequence (P08637 17-254 limits assumed)": "as the sequence (P08637 17-254 limits assumed) above", "experiment": "flow cytometry on primary human NK cells, with against without 10 mg/mL polyclonal human IgG", "method": "(§5) 4° C., and resuspended in 50 μL/well of diluted antibody constructs. […] After 40-50 minutes' incubation at 37° C., cells were washed 3-times with ice-cold FACS buffer. […] After the final incubation step, cells were washed 2-times with ice-cold FACS buffer, and the cell pellet was resuspended in 50 μL FACS buffer. Fluorescence intensity of >1×10⁴ viable cells was analyzed by flow cytometry and the median fluorescence intensity (MFI) was determined for each sample.\nas §4"}, "[8]": {"biological_target": "T4, CD16A endogenously expressed on primary …", "experiment": "flow cytometry on primary human NK cells, biotinylated antibody, 37 C, without IgG, mean of 4", "method": "as §5, §4"}, "[9]": {"biological_target": "T5, cynomolgus CD16 expressed on CHO cells (cAg_36) (cynomolgus, UniProt Q8SPW2 17-254)", "T5 construct": "whole, on cells; also called cyCD16", "T5 sequence (Q8SPW2 17-254)": "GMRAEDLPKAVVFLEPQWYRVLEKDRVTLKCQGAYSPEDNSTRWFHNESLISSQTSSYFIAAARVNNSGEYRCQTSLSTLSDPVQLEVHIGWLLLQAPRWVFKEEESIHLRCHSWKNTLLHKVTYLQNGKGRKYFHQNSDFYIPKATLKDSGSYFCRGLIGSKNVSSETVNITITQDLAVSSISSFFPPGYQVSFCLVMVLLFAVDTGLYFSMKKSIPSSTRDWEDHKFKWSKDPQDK", "experiment": "flow cytometry on cyCD16-transfected CHO cells (cAg_36), on ice, FITC goat anti-human IgG detection", "method": "as §3"}, "[10]": {"biological_target": "T1, human FOLR1 expressed on CHO cells …", "experiment": "flow cytometry on huFOLR1-transfected CHO cells (cAg_125), on ice, FITC goat anti-human IgG detection", "method": "as §1"}, "[11]": {"biological_target": "T4, CD16A endogenously expressed on primary …", "experiment": "flow cytometry on primary human NK cells at 37 °C, biotinylated antibody, streptavidin-FITC, without polyclonal human IgG", "method": "Frozen NK cells were thawed, and viability was determined with trypan blue (Sigma-Aldrich, cat.: T8154). Cells have been centrifuged at 400×g, 5 min, 4° C. Cell pellets were resuspended in FACS buffer PBS (Invitrogen, cat.: 392-0434) containing 2% h.i. FCS (Invitrogen, cat.: 10500-064), and 0.1% sodium azide (Sigma, cat.: S8032) at 2×10⁶ cells/mL. 100 μL/well of the cell suspension were transferred into U-shaped 96 well plates, cells were pelleted at 400×g, 5 min. 4° C., and resuspended in 50 μL/well of diluted antibody constructs. […] After 40-50 minutes' incubation at 37° C., cells were washed 3-times with ice-cold FACS buffer. […] After the final incubation step, cells were washed 2-times with ice-cold FACS buffer, and the cell pellet was resuspended in 50 μL FACS buffer. Fluorescence intensity of >1×10⁴ viable cells was analyzed by flow cytometry and the median fluorescence intensity (MFI) was determined for each sample."}},
  "data": [
    {"binder": "scFv-IgAb_387 (FOLR1_1×CD16a3) (bispecific antibody, Chemically biotinylated (NHS-PEG4-biotin) in Example 22 only., Tetravalent bispecific scFv-IgAb; also called FOLR1×CD16A scFv-IgAb_387; FOLR1/CD16A scFv-IgAb_387; copies: 2 + 2) heavy: EVQLVESGGGVVQPGRSLRLSCSASGFTFSGYGLSWVRQAPGKGLEWVAMISSGGSYTYYADSVKGRFAISRDNAKNTLFLQMDSLRPEDTGVYFCARHGDDPAWFAYWGQGTPVTVSSASTKGPSVFPLAPSSKSTSGGTAALGCLVKDYFPEPVTVSWNSGALTSGVHTFPAVLQSSGLYSLSSVVTVPSSSLGTQTYICNVNHKPSNTKVDKKVEPKSCDKTHTCPPCPAPEFEGGPSVFLFPPKPKDTLMISRTPEVTCVVVAVSHEDPEVKFNWYVDGVEVHNAKTKPREEQYNSTYRVVSVLTVLHQDWLNGKEYKCKVSNKALPAPIEKTISKAKGQPREPQVYTLPPSREEMTKNQVSLTCLVKGFYPSDIAVEWESNGQPENNYKTTPPVLDSDGSFFLYSKLTVDKSRWQQGNVFSCSVMHEALHNHYTQKSLSLSPGGGGGSGGGGSGGGGSGGGGSGGGGSGGGGSSYELTQPLSVSVALGQTARITCGGNNIGSKSVHWYQQKPGQAPVLVIYQDKKRPSGIPERFSGSNSGNTATLTISRAQAGDEADYYCQVWDDYIVLFGCGTKLTVLGGSGGSGGSGGSGGSGGSGGSQVQLVQSGAEVKKPGASVKVSCKASGYTFTNYYMQWVRQAPGQCLEWMGIINPSGGVTSYAQKFQGRVTMTRDTSTSTVYMELSSLRSEDTAVYYCARGSAYYYDFADYWGQGTLVTVSSG light: DIQLTQSPSSLSASVGDRVTITCSVSSSISSNNLHWYQQKPGKAPKPWIYGTSNLASGVPSRFSGSGSGTDYTFTISSLQPEDIATYYCQQWSSYPYMYTFGQGTKVEIKRTVAAPSVFIFPPSDEQLKSGTASVVCLLNNFYPREAKVQWKVDNALQSGNSQESVTEQDSKDSTYSLSSTLTLSKADYEKHKVYACEVTHQGLSSPVTKSFNRGEC", "values": [
      {"measurement": "Kd", "setting": "[1]", "result": 35.8, "unit": "nM"},
      {"measurement": "Kd", "setting": "[2]", "result": 35.1, "unit": "nM"},
      {"measurement": "Kd", "setting": "[3]", "result": 21.5, "unit": "nM"},
      {"measurement": "Kd", "setting": "[4]", "result": 30.8, "unit": "nM"},
      {"measurement": "Kd", "setting": "[5]", "result": 19.9, "unit": "nM"},
      {"measurement": "Kd", "setting": "[6]", "result": 47.5, "unit": "nM"},
      {"measurement": "fold loss in KD induced by IgG", "setting": "[7]", "result": 5.3, "unit": "fold"},
      {"measurement": "Kd", "setting": "[8]", "result": 4.3, "unit": "nM"},
      {"measurement": "EC50 (read off the curve)", "setting": "[9]", "result": "~30", "unit": "nM"},
      {"measurement": "EC50 (read off the curve)", "setting": "[10]", "result": "~40", "unit": "nM"},
      {"measurement": "EC50 (read off the curve)", "setting": "[11]", "result": "~4", "unit": "nM"}
    ]},
    {"binder": "scFv-IgAb_381 (FOLR1_1×CD16a4) (bispecific antibody, also called FOLR1×CD16A scFv-IgAb_381) chain 1: EVQLVESGGGVVQPGRSLRLSCSASGFTFSGYGLSWVRQAPGKGLEWVAMISSGGSYTYYADSVKGRFAISRDNAKNTLFLQMDSLRPEDTGVYFCARHGDDPAWFAYWGQGTPVTVSSASTKGPSVFPLAPSSKSTSGGTAALGCLVKDYFPEPVTVSWNSGALTSGVHTFPAVLQSSGLYSLSSVVTVPSSSLGTQTYICNVNHKPSNTKVDKKVEPKSCDKTHTCPPCPAPEFEGGPSVFLFPPKPKDTLMISRTPEVTCVVVAVSHEDPEVKFNWYVDGVEVHNAKTKPREEQYNSTYRVVSVLTVLHQDWLNGKEYKCKVSNKALPAPIEKTISKAKGQPREPQVYTLPPSREEMTKNQVSLTCLVKGFYPSDIAVEWESNGQPENNYKTTPPVLDSDGSFFLYSKLTVDKSRWQQGNVFSCSVMHEALHNHYTQKSLSLSPGGGGGSGGGGSGGGGSGGGGSGGGGSGGGGSSYELTQPLSVSVALGQTARITCGGHNIGSKNVHWYQQKPGQAPVLVIYQDNKRPSGIPERFSGSNSGNTATLTISRAQAGDEADYYCQVWDNYNVLFGCGTKLTVLGGSGGSGGSGGSGGSGGSGGSQVQLVQSGAEVKKPGASVKVSCKASGYTFTSYYMHWVRQAPGQCLEWMGAIEPTYGSTSYAQKFQGRVTMTRDTSTSTVYMELSSLRSEDTAVYYCARGSAYYYDFADYWGQGTLVTVS chain 2: DIQLTQSPSSLSASVGDRVTITCSVSSSISSNNLHWYQQKPGKAPKPWIYGTSNLASGVPSRFSGSGSGTDYTFTISSLQPEDIATYYCQQWSSYPYMYTFGQGTKVEIKRTVAAPSVFIFPPSDEQLKSGTASVVCLLNNFYPREAKVQWKVDNALQSGNSQESVTEQDSKDSTYSLSSTLTLSKADYEKHKVYACEVTHQGLSSPVTKSFNRGEC", "values": [
      {"measurement": "Kd", "setting": "[1]", "result": 24.7, "unit": "nM"},
      {"measurement": "Kd", "setting": "[2]", "result": 20.3, "unit": "nM"},
      {"measurement": "Kd", "setting": "[3]", "result": 26.2, "unit": "nM"},
      {"measurement": "Kd", "setting": "[4]", "result": 43, "unit": "nM"},
      {"measurement": "Kd", "setting": "[5]", "result": 27.1, "unit": "nM"},
      {"measurement": "Kd", "setting": "[6]", "result": 63.7, "unit": "nM"},
      {"measurement": "EC50 (read off the curve)", "setting": "[9]", "result": "~40", "unit": "nM"},
      {"measurement": "EC50 (read off the curve)", "setting": "[10]", "result": "~30", "unit": "nM"}
    ]}
  ]
}
